“Also recorded” adds a separate entry of the source.
B1: Nkx2.5: transcription factor (protein, UniProt P52952 1-324, looked up)
Homeobox protein Nkx-2.5: MFPSPALTPTPFSVKDILNLEQQQRSLAAAGELSARLEATLAPSSCMLAAFKPEAYAGPEAAAPGLPELRAELGRAPSPAKCASAFPAAPAFYPRAYSDPDPAKDPRAEKKELCALQKAVELEKTEADNAERPRARRRRKPRVLFSQAQVYELERRFKQQRYLSAPERDQLASVLKLTSTQVKIWFQNRRYKCKRQRQDQTLELVGLPPPPPPPARRIAVPVLVRDGKPCLGDSAPYAPAYGVGLNPYGYNAYPAYPGYGGAACSPGYSCTAAYPAGPSPAQPATAAANNNFVNFGVGDLNAVQSPGIPQSNSGVSTLHGIRAW
B2: FL WT UTY(KDM6C): full-length wild type UTY(KDM6C) exogenously expressed in cells (protein, UniProt O14607 1-1347, looked up)
chain: MKSCAVSLTTAAVAFGDEAKKMAEGKASRESEEESVSLTVEEREALGGMDSRLFGFVRLHEDGARTKTLLGKAVRCYESLILKAEGKVESDFFCQLGHFNLLLEDYSKALSAYQRYYSLQADYWKNAAFLYGLGLVYFYYNAFHWAIKAFQDVLYVDPSFCRAKEIHLRLGLMFKVNTDYKSSLKHFQLALIDCNPCTLSNAEIQFHIAHLYETQRKYHSAKEAYEQLLQTENLPAQVKATVLQQLGWMHHNMDLVGDKATKESYAIQYLQKSLEADPNSGQSWYFLGRCYSSIGKVQDAFISYRQSIDKSEASADTWCSIGVLYQQQNQPMDALQAYICAVQLDHGHAAAWMDLGTLYESCNQPQDAIKCYLNAARSKRCSNTSTLAARIKFLQNGSDNWNGGQSLSHHPVQQVYSLCLTPQKLQHLEQLRANRDNLNPAQKHQLEQLESQFVLMQQMRHKEVAQVRTTGIHNGAITDSSLPTNSVSNRQPHGALTRVSSVSQPGVRPACVEKLLSSGAFSAGCIPCGTSKILGSTDTILLGSNCIAGSESNGNVPYLQQNTHTLPHNHTDLNSSTEEPWRKQLSNSAQGLHKSQSSCLSGPNEEQPLFSTGSAQYHQATSTGIKKANEHLTLPSNSVPQGDADSHLSCHTATSGGQQGIMFTKESKPSKNRSLVPETSRHTGDTSNGCADVKGLSNHVHQLIADAVSSPNHGDSPNLLIADNPQLSALLIGKANGNVGTGTCDKVNNIHPAVHTKTDHSVASSPSSAISTATPSPKSTEQRSINSVTSLNSPHSGLHTVNGEGLGKSQSSTKVDLPLASHRSTSQILPSMSVSICPSSTEVLKACRNPGKNGLSNSCILLDKCPPPRPPTSPYPPLPKDKLNPPTPSIYLENKRDAFFPPLHQFCTNPKNPVTVIRGLAGALKLDLGLFSTKTLVEANNEHMVEVRTQLLQPADENWDPTGTKKIWRCESNRSHTTIAKYAQYQASSFQESLREENEKRTQHKDHSDNESTSSENSGRRRKGPFKTIKFGTNIDLSDNKKWKLQLHELTKLPAFARVVSAGNLLTHVGHTILGMNTVQLYMKVPGSRTPGHQENNNFCSVNINIGPGDCEWFVVPEDYWGVLNDFCEKNNLNFLMSSWWPNLEDLYEANVPVYRFIQRPGDLVWINAGTVHWVQAVGWCNNIAWNVGPLTACQYKLAVERYEWNKLKSVKSPVPMVHLSWNMARNIKVSDPKLFEMIKYCLLKILKQYQTLREALVAAGKEVIWHGRTNDEPAHYCSICEVEVFNLLFVTNESNTQKTYIVHCHDCARKTSKSLENFVVLEQYKMEDLIQVYDQFTLALSLSSSS
modifications: full-length
notes: full-length wild type UTY(KDM6C) exogenously expressed in cells

How the values were obtained:
[1] = test system: ANF promoter in HEK 293T cells; assay: ANF promoter dual luciferase assay in HEK 293T cells; assay type: cell-based; conditions: for ANF promoter luciferase expression in the presence of Nkx2.5: Nkx2.5 present
Protocol: (§1) For cell-based experiments, HEK 293T and HeLa cells were cultured at 37 °C and 5% CO2 in DMEM (Lonza) supplemented with 10% fetal bovine serum (FBS) (Invitrogen) and 1% Glutamax (Invitrogen). For microscopy, HeLa cells were seeded into 96-well clear bottom optical grade plates (BD Biosciences) at 8000 cells/well and allowed to settle overnight. Transfections were carried out the next day. For each well, 0.1 μg of plasmid and 0.25 μl of Lipofectamine 2000 (Invitrogen) were each incubated in 25 μl of Opti-MEM (Invitrogen) for 5 min at room temperature. The two solutions were then mixed gently but thoroughly and incubated for 20 min at room temperature. The mixture was added to the cells in 50 μl of fresh medium. Four hours later, the medium was changed, and the cells were incubated for a further 24 h before fixation. Cells were fixed in 4% (v/v) aqueous formaldehyde for 20 min, permeabilized in 0.5% Triton X-100 in phosphate-buffered saline (PBS) for 8 min, and blocked in 3% (w/v) FBS in PBS for 1 h with a PBS wash between each step. The primary antibodies were then added to the cells in blocking solution. After 1 h at room temperature, cells were washed three times in PBS, incubated with secondary antibodies for 1 h, rinsed three times in PBS again, and counterstained with DAPI before imaging. Luciferase activity assays were carried out as described previously ([13], [22], [40]). The atrial natriuretic factor (ANF) promoter-luciferase reporter was a kind gift from Benoit Bruneau ([41]). As for immunofluorescence assays, this construct was co-transfected into HEK 293T cells in the presence of full-length (FL) WT UTY(KDM6C) or H1095 UTY(KDM6C). Luciferase activity was measured using the Promega Dual-Luciferase Reporter Assay System on a Promega GloMax 20/20 luminometer. Readings were normalized to a Renilla luciferase control that was co-transfected with all samples.

[2] = test system: H3K27Me3 levels in HeLa cells; assay: Immunofluorescence of global H3K27Me3 levels on overexpression in HeLa cells; assay type: cell-based; conditions: exogenous overexpression in HeLa cells
Protocol: as §1, with “After 1 h at room temperature, cells were washed three times in PBS, incubated with secondary antibodies for 1 h, rinsed three times in PBS again, and counterstained with DAPI before imaging. Luciferase activity assays were carried out as described previously ([13], [22], [40]). The atrial natriuretic factor (ANF) promoter-luciferase reporter was a kind gift from Benoit Bruneau ([41]). As for immunofluorescence assays, this construct was co-transfected into HEK 293T cells in the presence of full-length (FL) WT UTY(KDM6C) or H1095 UTY(KDM6C).” left out, “samples. […]” for “samples.”

| Molecule | ANF promoter luciferase expression in the presence of Nkx2.5 ([1]; HEK 293T cells) | change in global H3K27Me3 level [2] | ANF promoter luciferase expression (in words) ([1]; HEK 293T cells, without Nkx2.5, *, p < 0.05 unpaired Student's t test) | increase in ANF promoter-coupled luciferase expression ([1]; overexpression in HEK 293T cells, relative to empty vector control, average of three biological replicates of triplicate transfections) |
| --- | --- | --- | --- | --- |
| B1 | enhanced expression from the ANF promoter | – | – | – |
| B2 | does not further enhance expression | no detectable decrease; also recorded: no change in H3K27Me3 levels | enhanced expression | 5 -fold |

Reference: publication PMC4140284, “Human UTY(KDM6C) Is a Male-specific N^ϵ-Methyl Lysyl Demethylase” (The Journal of Biological Chemistry, 2014)
